41 sequences from the nanobody polyreactivity screen of Harvey et al. (2022) can be followed below.

This series can be described thus: yeast display, Sf9 membrane polyspecificity reagent, FACS + sequencing; frameworks hold sequencing errors. The procedure, abridged:
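Genes from sorted yeast were amplified by colony PCR, read by MiSeq 2 × 250 sequencing and filtered on CDR length. These cells carried a synthetic nanobody library in Saccharomyces cerevisiae BJ5465 and were sorted by FACS into low and high (top ~1%) gates on anti-HA and streptavidin fluorescence. Polyreactivity is labelled according to the gate of origin.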
For the sequence “QVQLVESGGGLVQAGCSLRLSCAASGSIRGYAMGWSRQAPGKERELVASITWSGGSTYYADSVKGRFTMSRDNAKYTVYLQMHSLNPEDTAVYYCAASPSPYASVIRPYDYWGQGTQVTVSS”, the “polyreactivity (PSR sort gate)” value is on record as “low polyreactivity”.
For “QVQLVESGGGLVQAGGSLRLSCAASGRIFRGYAMGWYIQAPGKEREFVADITRSGGSTYYADSVKGRFTISRDNAKNTVYLQMNSLKPEDTAVYYCAREWYQYSPYHRFDYWGQGTQVTVSS”, the “polyreactivity (PSR sort gate)” value is recorded as “high polyreactivity”.
As to “QVQLVDSGGGLFQPGGSLRLSCAASGSTFSDNAMGWYRQAPGKERELVASISSDDGSTYADSVKGRFTISRDNAMNTVYLQMNSLKSEDTAVYYCAADGFLAIYAAEYDYWGQGTQVTVSS”, the “polyreactivity (PSR sort gate)” value is “low polyreactivity”.
For the sequence “QVQLVESEGGLVQAGGSLRLSCAASGFIFKYNDMGWYRQAPGKERELVAAIDVRTGLTYYADSVKGRFTISRDNAKTTVYLQMNSLKPEDPAVYYCNADYIQYAYDYWGQGTQVTVSS”, the “polyreactivity (PSR sort gate)” value is “high polyreactivity”.
Regarding “QVHLVESGGGLVQAGGSLSLSCAASGSIFRYYAMGWYRQAPGKEREFVAAITRGGGRTYYADSVKGRFTISRDTAKHTVYLQLNSLKPEDTAVYSCAAGPPRTRYRNARFDYWGQGTQVTVSS”, the “polyreactivity (PSR sort gate)” value is on record as “high polyreactivity”.
As to “QVQLVESGGGLVQAGGSLRLSCAASGIIFYNNAMGWYRKAPGKERELVADITSGNTNYADSVKGRFTISRDNAKNTVYLQMNSLKPEDTAVYYCNAEDDYTYDRSFGGYKYDYWGQGTQVTVSS”, the “polyreactivity (PSR sort gate)” value is “low polyreactivity”.
As to “QVQLVESGAGLVQAGGSLRLSCAASGIIFPFYAMGWYRQAPGKEMELVAAITSDGNTNYADSVKGRFTFSRDNAKNTVYLQMNSLKPVDTAVYYCNAETQYAVLSWHSTRHDYWGQGTQVTLSS”, the “polyreactivity (PSR sort gate)” value was “low polyreactivity”.
On to “QVQLVESGGGLVQAGGSLRLSCAASGRIFPFYAMGWNRQAPGKERELVAAITSSGGRTYYADSVKGRFTISRDNAKNTVYLQMNSLIPEDTAVYYCAADDTDYPEYDYWGQGTQVTVSS”, for which the “polyreactivity (PSR sort gate)” value is on record as “high polyreactivity”.
Next, “QVQLVESGGGLVQAGGSLRLSCAASGSTFTKNAMGWYRQAPGKERELVAAISFSGGSTYYADSVKGRFTISRDNAKNTVYLQMNSLKPEHTAVYYCAADPHRALPRFDYWGQGTQVTVSS”: “low polyreactivity”.
On to “QVQLVESGGGLVQAGGSLRLSCAASGFTFYIYAMGWDRQAPGKERELVAAIRASGGSTYYADSVKGRFTISRDSAKNTVYFLMNSLNPDDTAVYYCAADYKVYASWYYAYTFYYWGQGTQVTVSS”, for which the “polyreactivity (PSR sort gate)” value is “low polyreactivity”.
With “QVQLVESGGGLVQAGGSLRLSCAASGRIFYLYTMGWYRQAPGKEREFSTYYADSVKGRFTISRDNAKNTVYLQMNCLKPEDTAVYYCAAADHPPVWYGYWGQGTQVTVSS”, the “polyreactivity (PSR sort gate)” value is reported as “low polyreactivity”.
Regarding “QVQLVESGGGLVQAGGSLRLSCAASGSTFTDYAMGWYRQAPGKERELVAAITDSGGRTYYADSVKGRFTISRDNAKNTVYLQMNSLKPEDTAVYYCATEDDRWYYWGQGTQVTVSS”, the “polyreactivity (PSR sort gate)” value was “high polyreactivity”.
Next, “QVQLVESGGGLVQAGGSLRLSCAAAGLIFRFYAMGWYRQSPGKERELVAAISSRGGSRYYADSVKGRFTISRDNAKNTVYLQMNSLKPEDTAVYYCAAAVRKMAYPHYEYGYWGQGTQVTVSS”: “high polyreactivity”; “QVQLQGSGGGLAQAGDSLRLSCAASGTIFSEYNNGLVSPGAGQRTRTCCRYWCWGNTYYADSAKRRFTTSRDNAKNTLYLQKNSLKPEDTAVYYCAFNRPYPSRHIYRGQGTQVTVSS”: “high polyreactivity”.
Next, “KVQLVESVGGLVQAGGSLRLSCAASGRIFGVNAMGWYRQAPGKERELVAAIRSGDSTNYADSVKGRFTISRDNAKNTVYLQMNSLKPEDTAVYYCATDLYFDLRYDYWGQGTQVTVSS”: “low polyreactivity”; “QVQLVDSGGGLVQAGGSLRLSCAASGSTLVYKDMGLYRQAPGKEREFVAAIRSNDGSTYYADSVKGRFTISRDNAKNTVYLQMNSLKPEDTAVYYCAKGRYAYSIWDDYWGQGTQVTVSS”: “low polyreactivity”; “QVQLVESGGGLVQAGGSLRLSCAASGFTFYGNAMGWYRQAPGKERELVAAISSGGSTNYADSVKGRFTISRDNAKNTVYLQMNSLKPEDTAVYYCAASYPGQVSFPYASIGFDYWGQGTQVTVSS”: “low polyreactivity”.
Next, “QVQLVESGGGIVQAGGSLRLSCAASGFIFGPYTMGWYRQAPGKERELVAAINNSGSTNYADSVKGRFTISRDNAKNTVYLQMNSLKPEDTAVYYCAAEPIIFVRYDYWGQGTHVTVSS”: “low polyreactivity”.
For “QVQLVESGGGLVHAGGSLRLSCAASGRTFRWYALGWYRQAPGKERELVAAISSSGTRTYYADSVKGRFTISRDNAKNTVYLQMNSLKPEDTAVYYCAATWRVGYDYWGQGTQVTVSS”, the “polyreactivity (PSR sort gate)” value is reported as “high polyreactivity”.
Next, “QVQLVESGGGLVQAGGSLRLSCAASGSIFPYYAMGWYRQAPGKERELVAAINWSGDSTYYADSVKGRFTISRDNAKNTVYLQMNSLKPEDTAVYYCAARSRWRYDYWGQGTQVTVSS”: “low polyreactivity”; “QVQLEESGGGLVQAGGSLRLTCAASGSIFGSYTMGWYRKAPGKERELVAVISYSGGSTYYADSVKGRFSISRDNAKNTVYLQMNSLKPEDTAVYYCNAARKGVGYVHPYDFWGQGTQVTVSS”: “high polyreactivity”; “QVQLEESGGGLVQAGGSHRLSCAASGIIFRWYTMGWYRQAPGKERELVAAISTSTGSTYYADSVKGRFTISRDNAKNTVYLQMNSLKPEDTGVYYCAAEYAYWNYESYYWGQGTQVNVSS”: “high polyreactivity”.
Next, “QVQLVESGGGLVQAGGSLRLSCAASGSIFYYYSMGWYRQAPGKERELVARITSGGSTKYADSVKGRFTISRDNAKYTVYLQMNSLKPEDTAVYYCAARYQYNYWGTYGSWGQGTQVTVSS”: “high polyreactivity”.
Next, “QVQLVESGGGLVQAGGSLRLSCAASGGTFPVYAMGWYRQAPGKERELVAAISYSGVTTYYADSVKGRFTISRDNAKNTVYLQMNSLKPEDTAVYYCNADWRRWYIFSYDYWGQGTQVTVSS”: “low polyreactivity”; “QVQLVESGGGLVQAGGSLRLSCAASGRIFGINVMGWYRQAPGKERELVARITGRGGRTYYADSVKGRFTISRDNAKNTVYLQINSLKPEDTAFYYCAADARYEAYDYWGQGTQVTVSS”: “high polyreactivity”; “QVQLVESGGGLVQAGGSLRLSCAASGYARGWYRQAPGKERELVAAITSGGSTNYADSVKGRFTISRDNAKNTVYLQMNSLKPEDTAVYYCAAAYSLYGHRYDYWGQGTQVTVSS”: “low polyreactivity”.
Take “QVQLVESGGGLVQAGGSLRLSCAASGFTFYNYAMGWYRQAPGKERELVAAITSRGGSTYYADSVKGRFTISRDYAKNTVYLQMNSLKPEDTAVYYCNAVAKLYYWRYDYWGQGTQVTVSS”: the “polyreactivity (PSR sort gate)” value is recorded as “low polyreactivity”.
Next, “QVQLVESGGGLVQAGGSLRLSCAASGGIFSYAMGWYRQAPGKERELVADINSDGSTTYADSVKGRFTISRDNAKNTVYLQMNSLKPEDTAVYYCAVDVSVNWPLLERYEYWGQGTQVTVSS”: “low polyreactivity”; “HVQLVESGGGLVQAGGSLRLSCAASGRTLGSYAIGWYRQAPGKARELVAAISGGSTNYADSVKGRFTISRDNAKNTVYLQMNRLKPEDTAVYYCAADPYGYLYDSWGQGTQVTVSS”: “low polyreactivity”; “QVQLVESGGGLVQAGGSLRLSCAASGRTLTRNAMAWYRQAPRTERELVAVITSSGSRTYYADSVKGRFTISRDNAKNTVYLQMNSLKPEDTAVYYCAAKVDASDVRRSRAGRYDYWGQGTQVTVSS”: “high polyreactivity”.
Next, “QVQLVESGGGLVQAGGSLRLSCAASGRIFGPYTMGWYRQAPGKERELVAAITGRVVSTYYADSVKGRFTISRDNAKNTVYLQMNSLKPEDTAVYYCAKASHYWSQRFGYWGQGTQVTVSS”: “high polyreactivity”.
For “QVQLVESGGGLVQAGGSLRLSCAASGSTFGYNAMGWYRQAPGKERELVAAITWSGGSTYYADSVKGRFTISRDNAKNTVYLQMNSLKPEDTAAYYCAADDWYNSKWHYYYWGQGTQVTVSS”, the “polyreactivity (PSR sort gate)” value is “low polyreactivity”.
Regarding “QVQLVESGGGVVQAGGSLRLSCAASGSIFPENARGWYRQAPGKERELVAAITSSDSSTYYADSVKGRFTISRDNAKNTVYLQMNSLKPEDTAVYYCAAYRVGFRFREYYWGLGTQVTVSS”, the “polyreactivity (PSR sort gate)” value is given as “low polyreactivity”.
Turning to “QVQLVESGGGLVQAGGSLRLSCAASGIIFSYYTMGWYRQAPGKERELVAAISRTGGRTYYADSVKGRFTISRDNAKNTVYLQMNSLKPEDTAVYYCAAEQQYASICYDYWGQGTEVTVSS”, the “polyreactivity (PSR sort gate)” value is given as “high polyreactivity”.
For the sequence “QVQLVESGGGLVQAGGSLRLSCAASGGIFARYVKGWYRQAPGKERELVAAISLSGGSTYYADSVKGRFTISRDNAKKTVYLQMNSLNPEDTAVYYCAAIRKKRLTYDYWGQGTEVTVSS”, the “polyreactivity (PSR sort gate)” value is “high polyreactivity”.
Next, “QVHLVESGGGLVQAGGSLRLSCAASGNTFYQYAMGWYRQAPGKERELVAAISSSGGSTYYADSVKGRFTISRDNAKNTVYLQMNSLKPEDTAVYYCATDKWYGYYYWGPGTQVTVSS”: “low polyreactivity”; “QVQLVESGGGLVQAGGSLRLSCAASGFIFGVYPMGWYRQAPGKERELVAAISRSGGSTYYADSVKGRFTISRDSAKNTVYLQMNSLNPEDTAVYYCATHVSLYGKGYYYWGQGTQVTVSS”: “high polyreactivity”; “QVQLVESGGGLVQAGGSLRLSCAASGFIFIYYAMGWYRQAPGKERELVATINGITGSTYYADSVKGRFTISRDNAKNTVYLQMNSLKPEDTAVYYCAKVPRKYRAWMDYWGQGTQVTVSS”: “high polyreactivity”.
For the sequence “QVQLVESGGGLVQAGGSLRLSCAASGSIFYQYAMGWNRQAPGKERELVAVINRSGSSTYYADSVKGRFTISRDNAKNTVYLQMNSLKPEDNAVYYCAAASKYSEYNYWGQGTEVTVSS”, the “polyreactivity (PSR sort gate)” value is recorded as “high polyreactivity”.
For the sequence “QVQLVESGGGLDQAGVSLRLSCAATGRIFYHYAMGWYRHEPGKERELVASITTSGDSTYYADSVKGRFTISRDTAKNTVYLQMNSLKPEDTAVYYCAARSYRGSRYDYWGQGTQVTVSS”, the “polyreactivity (PSR sort gate)” value was “high polyreactivity”.
With “QVQLQESGGGLVQAGGSQRLSSAASGYNFYFQYMGWYRQAPGKEREFVAAISDGANTNNADSVKGRFTISRDNAKNTEYLQMNSLKPEDSAVYYCAVYADDNYYYIYWGQGTQVTVSS”, the “polyreactivity (PSR sort gate)” value is given as “low polyreactivity”.
